The source of these data is patent US6696546.

Data set [1] relates to 8-mer PAP CRM-derived peptide (SKIRILVG).
The test system of data set [2] is 8-mer peptide of scrambled sequence (LRSGIKVI).
The target of data set [3] is bacterial produced, purified his-PAP I (UniProt P25500).
bacterial produced, purified his-PAP I, sequence (P25500 other isoform, or with tags, fused parts or gaps): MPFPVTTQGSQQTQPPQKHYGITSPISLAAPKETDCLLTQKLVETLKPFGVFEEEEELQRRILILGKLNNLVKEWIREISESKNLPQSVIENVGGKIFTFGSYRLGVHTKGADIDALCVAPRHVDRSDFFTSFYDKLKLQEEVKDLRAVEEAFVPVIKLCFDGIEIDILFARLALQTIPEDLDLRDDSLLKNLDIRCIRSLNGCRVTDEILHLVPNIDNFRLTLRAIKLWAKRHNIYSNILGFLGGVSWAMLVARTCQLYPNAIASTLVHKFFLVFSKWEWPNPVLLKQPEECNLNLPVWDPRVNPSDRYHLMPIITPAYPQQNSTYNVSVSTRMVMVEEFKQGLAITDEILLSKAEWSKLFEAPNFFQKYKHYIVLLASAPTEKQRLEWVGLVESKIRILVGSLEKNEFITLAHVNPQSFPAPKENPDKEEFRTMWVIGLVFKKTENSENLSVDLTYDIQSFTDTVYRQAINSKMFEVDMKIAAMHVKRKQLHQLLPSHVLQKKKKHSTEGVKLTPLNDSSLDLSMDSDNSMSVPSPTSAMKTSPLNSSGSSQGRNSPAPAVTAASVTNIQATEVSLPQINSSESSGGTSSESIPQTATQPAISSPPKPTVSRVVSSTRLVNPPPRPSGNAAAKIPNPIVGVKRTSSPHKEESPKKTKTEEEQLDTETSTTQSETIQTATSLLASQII

human cyclin A/flu-tagged cdk2: in data set [1], the “pRB phosphorylation by cyclin A/cdk2 (in vitro kinase assay, 32P, autoradiography; peptide at 9 µM and 18 µM)” value was “PAP's CRM effectively inhibited pRB phosphorylation by cyclin A/cdk2 (lanes 2 and 3)”. Moreover, the “pRB phosphorylation by cyclin A/cdk2 (in vitro kinase assay, 32P; peptide at 9 µM and 18 µM)” value in data set [2] was “a peptide with PAP's CRM scrambled was also tested, and it showed no effect on pRB phosphorylation (lanes 4 and 5)”. In data set [3], the “32P incorporation into PAP (in vitro kinase assay, autoradiography)” value was 32P was efficiently incorporated into PAP.

Regarding “human cyclin B1/flu epitope-tagged p34cdc2”, the “pRB phosphorylation by cyclin B1/cdc2 (in vitro kinase assay, 32P; peptide at 18 µM)” value in data set [1] was “PAP's CRM also strongly and specifically inhibited phosphorylation of pRB by cyclin B1/cdc2”.
